Test results as given in patent US10337022B2, “Methods of increasing root biomass in plants” (Agresearch Limited, priority 2014, dated 2019).

T1: BZR1 (Arabidopsis thaliana, UniProt Q8S307)
T1 construct: expressed in transfected cells; host or cells: Nicotiana benthamiana leaves (Agrobacterium infiltration)
T1 sequence (Q8S307 1-336): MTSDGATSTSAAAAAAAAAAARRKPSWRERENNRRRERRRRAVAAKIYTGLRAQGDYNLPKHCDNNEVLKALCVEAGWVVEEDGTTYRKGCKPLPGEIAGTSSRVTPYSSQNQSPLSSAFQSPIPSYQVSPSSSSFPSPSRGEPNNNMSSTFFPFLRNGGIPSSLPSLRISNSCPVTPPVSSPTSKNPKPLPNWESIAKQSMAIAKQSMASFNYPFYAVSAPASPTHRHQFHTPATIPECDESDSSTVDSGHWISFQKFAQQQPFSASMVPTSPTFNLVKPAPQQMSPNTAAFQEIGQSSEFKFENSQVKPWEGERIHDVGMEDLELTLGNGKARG

B1: P. abies PPD: Picea abies PEAPOD protein, SEQ ID NO: 4 (protein)
chain: MRGGGGADRLPARANLEKPLEDLSHEDIMQLTREDCRRYLIEKGMRRPSWNKSQAIQQVLSLKKLFESGPNDEKRSAATNRPNPDENLKEAASVSLLYGSQPESPSVVFASKDSDTFNLEWLAKTELPVLASQPRHIAQQNVFLSSLSAQQSGAQLTIFYSGNVNVYDDVPAEKAQEIMLLAGSGNYPPSSTCQSTRNTQQNAVRAAYPSNPTNTPFIHGVGPPLATVASSSVMSSPIHKESPITRKASLQRFLEKRKDRSRGKLGAPTISKKPLLMGMFMHPSIVHRQYWTDTAKRKSGKPDIPASISPTRPPHTPRRTSSDEQLSARHARGDISAQGGSLHNSN
modifications: Picea abies
B2: T. repens PPD: Trifolium repens PEAPOD protein, SEQ ID NO: 11 (protein, listed as Trifolium repens)
chain: MNGGSTVSFRSILDKPLNQLTEDDISQLTREDCRRFLKDKGMRRPSWNKSQAIQQVISLKALLEPTDDDLPAPVGVSSAIHHHHHHHPQPPQRNLNEAPVKGSDLDDTGFHTAEDLNKSTSTAVEIPTETNDANVVKSSGGCVASGSFGQMTIFYCGKVNVYDGVSPDKARSIMQLAACPSSFPQDNLLNKNAAVWASPCNIPIDKDVLFPNDTAILQVAQTDKMVEYPLQYREKGSIARDADVEGQASRNASLQRYREKRKDRGRSKGNKLTGITSSNFEMYLNLPVKLHASNGNSSRSSTDSPPQPRLPLVSGGSAENQPKVTLPIDLNDKDVQEC
B3: A. trichopoda PPD: Amborella trichopoda PEAPOD protein, SEQ ID NO: 12 (protein, listed as Amborella trichopoda)
chain: MTAGDGSIRSILDKPLEELTEEDISQLTREDCRRYLKEKGMRRPSWNKYQAIQQVLSLKGLLEGKPCDDNSDVFSHRSPITVIPNVGSMREKEKAVNIADPEISGSHQPNFRREIHETTRERALPASDWPPSQEPVSQMTIFYAGAVNVYNDIPEDKVQAIIYLAGKSDSLQQTNVIRTGPDQCIASAASPSLNDLHSRRIHPTSNITTSQSLRVATSLPVGPHSEVPKTRKTSVQRFLEKRKDRGRLKGTLASGGSSKRGSSCLELYATSRLKSEGVATTTTQSNMNNVVVSPSNPRMPLNPGSCSWVEN
B4: P. sitchensis PPD: Picea sitchensis PEAPOD protein, SEQ ID NO: 5 (protein, listed as Picea sitchensis)
chain: MRGGERAPGSRPSLDKPLEELTEEDIFQLTREDCRRYLKEKGMRRPSWNKSQAIQQVLSLKSLFESKPNQQSKKPSKHKPATLQFETARDSTFAQSSVSQEQSLGFSWSKEVLDKGTAERQRLCSDSQEAHEIPRLGSKPPQSNTEGKRCAHDGHGRKSAQPLVRLPANFKNDCSNRQSSHTSESQPDTLLRSDSFQQPTAQLTIFYAGMVNVYDDVPLDKA

Columns and labels:
[1] = tested on: Wild-type (Col-0), Δppd mutant and transgenic PPD-OX seedlings; assay: Hypocotyl length response to exogenous GA or PAC; assay type: in vivo, Arabidopsis
Description: Giberellic acid (GA) treatment is known to reduce levels of the DELLA proteins (including RGA1) which are GA repressors; to determine the relationship between PPD, DELLA and the GA signalling pathway the applicants performed a yeast two-hybrid (Y2H) analysis between PPD and DELLA (RGA1) and applied gibberellic acid (GA) hormone and GA biosynthesis inhibitor (paclobutrazol, PAC) to wild type, Δppd mutant, and the Δppd mutant PPD over expressor (PPD-OX).
For exogenous applications of GA or PAC seeds were surface sterilised with 70% ethanol, 0.01% Triton X-100 for 10 min, followed by 100% ethanol for 5 min, air dried on sterile filter paper, and transferred to media plates containing half-strength MS salts, 1% sucrose and 0.8% agar. Plates were incubated for 5 days at 4° C. in the dark then transferred to 24° C. with a 14 h light/10 h dark daily cycle. Light was provided by fluorescent tubes (Philips TLD 58W/865) at an intensity of 100 μM m^−2 s^−1. Wild-type (Col-0) Δppd mutant and transgenic PPD-OX seedlings were grown for five days on medium with different concentrations of GA (FIG. 10A) or PAC (FIG. 10B). GA (ACROS organics), and PAC (Sigma-Aldrich) were dissolved in ethanol and acetone respectively, filter sterilised and incorporated into media plates. Ethanol or acetone (0.5%) was used for mock treatments. Seedlings were grown at 24° C. under a 14 h light/10 h dark daily cycle for 5 days before hypocotyl lengths were analysed (n=35). Each treatment was repeated twice; error bars=standard error of the mean.

[2] = molecular target: T1, BZR1; assay: BiFC interaction with BZR1 in Nicotiana benthamiana leaves; assay type: cell-based; conditions: fully expanded leaves, co-expressed with cYFP-BZR1
Description: The binary BiFC-Gateway YFP vectors pDEST-VYNE(R)^GW (Venus aa 1-173) and pDEST-VYCE(R)^GW (Venus aa 156-239) with N-terminal fusions, were used to construct the following vectors; pDESTnYFP-BZR1, pDESTnYFP-NINJA, pDESTnYFP-PPD1, pDESTcYFP-BZR1, pDESTcYFP-PPD1, pDESTcYFP-PPD1Δppd, pDESTcYFP-PPD1Δtify and pDESTcYFP-PPD1Δjas*. […] Plasmids for co-immunoprecipitation: A synthesised DNA construct encoding PPD1 with a 3×c-myc C-terminal fusion was sub-cloned into pRSh1 to produce pRSh1-PPD1-3×c-myc, while the NINJA cDNA sequence was sub-cloned into pB7FWG2,0 (Karimi et al 2002, Trends Plant Sci. 7, 193-195) to construct pB7FWG2-NINJA-GFP.
For infiltration Agrobacterium tumefaciens GV3101 strains containing the binary vectors were re-suspended from plates and prepared for transformation as described for the LUC assay. All YFP and expression strains were mixed in ratios of 1:1 (vol/vol) with the addition of strain P19 at 1/10th volume. Five leaf discs were sampled from each infiltrated leaf after 40 h. Two hours prior to sampling for microscopic fluorescence observations leaves were infiltrated with a 1 μg/ml DAPI solution to stain nuclei. YFP fluorescence and DAPI staining was detected using an Olympus Fluoview FV10i confocal laser scanning microscope. Each experiment was repeated twice.

[3] = tested on: Δppd Arabidopsis plants; assay: Root biomass analysis of Arabidopsis transformants; assay type: in vivo; conditions: constitutive promoter, approximately 6 weeks in growth cabinet
Experimental: Seeds from WT and Δppd Arabidopsis plants transformed with T. repens PPD under a constitutive promoter were scarified and sown into potting mix. […] The increase in root biomass was quantified by washing the roots under running water then the attached above ground portion (leaves and stems) was removed and the roots dried at 65° C. for 48 hr then weighed.

[4] = tested on: ryegrass plants; assay: Root biomass analysis of ryegrass transformants; assay type: in vivo; conditions: approximately 6 weeks in glasshouse
Experimental: An equal number (typically 4-10) of tillers were taken from WT and ryegrass plants transformed with Arabidopsis PPD under a constitutive promoter. Tillers were planted into plastic grow bags containing potting mix and pruned to be of equal height. […] The increase in root biomass was quantified by washing the roots under running water then removing the attached above ground portion (leaves and stems) and drying the roots at 65° C. for 48 hr then weighing the dry weights (Table 2).
An equal number (typically 4-10) of tillers were taken from WT and ryegrass plants transformed with Arabidopsis PPD under one of three root promoters. Tillers were planted into plastic grow bags containing potting mix and pruned to be of equal height. […] The increase in root biomass was quantified by washing the roots under running water then removing the attached above ground portion (leaves and stems) and drying the roots at 65° C. for 48 hr then weighing the dry weights (Table 3 and Table 4)

[5] = tested on: PEAPOD deletion mutant Δppd Arabidopsis thaliana ecotype Landsberg erecta; assay: Complementation of the Arabidopsis Δppd mutant leaf phenotype; assay type: in vivo; conditions: optimized PEAPOD coding sequence under CaMV35s promoter, seedlings (FIG. 13)
Description: The functionality of any PEAPOD sequence can be confirmed by complementation of the Arabidopsis Δppd mutant leaf phenotype. Complementation of the Arabidopsis Δppd mutant leaf phenotype was first used to identify the Arabidopsis PPD gene (White 2006). This was seen by a restoration of the wild type flattened leaf phenotype and normal rosette shape as opposed to the domed leaf and the twisting of the rosette to a “propeller” phenotype.
Constructs above can be transformed into Arabidopsis by the floral dip infiltration method (Clough and Bent, 1998 Plant J 16, 735-43). The Δppd line is transformed to express the PPD polypeptides by standard techniques. Transgenic plants are confirmed by standard PCR analysis techniques with a combination of transgene-specific and T-DNA primers.
Complementation of the Δppd line to produce a wild-type leaf and rosette phenotype in T1 seedlings (the off-spring of the infiltrated plant) confirms PEAPOD functionality of the introduced gene, which can be shown in photographs.

Molecule	root growth beyond the pot compared to WT plants [3]	root growth beyond the grow bag compared to WT plants ([4]; constitutive promoter)	root growth beyond the grow bag compared to WT plants ([4]; one of three root promoters)	PEAPOD functionality by complementation of Δppd mutant [5]	also measured
CC(C)(C)[C@@H](O)[C@@H](Cc1ccc(Cl)cc1)n1cncn1 (racemic) [PAC, paclobutrazol]	–	–	–	–	hypocotyl length ([1]; PPD-OX seedlings, PAC beyond 0.1 μM): decrease in hypocotyl length; hypocotyl length ([1]; PPD-OX seedlings, PAC up to 0.1 μM): relatively insensitive; hypocotyl elongation ([1]; wild type seedlings, 0 to 10 μM PAC): dose dependent decrease of hypocotyl elongation; hypocotyl elongation ([1]; Δppd seedlings, 0 to 10 μM PAC, compared with wild type): larger reduction in hypocotyl elongation
C=C1C[C@]23C[C@@]1(O)CC[C@H]2[C@@]12C=C[C@H](O)[C@@](C)(C(=O)O1)[C@H]2[C@@H]3C(=O)O [GA, gibberellic acid]	–	–	–	–	hypocotyl elongation ([1]; PPD-OX seedlings, 1 μM GA, 5 days): increased hypocotyl elongation; hypocotyl elongation ([1]; PPD-OX seedlings, up to 10 μM GA): hypersensitive elongation; hypocotyl elongation ([1]; WT seedlings, 5-50 μM GA, 5 days): elongation of the WT hypocotyl occurred in a dose dependent manner; hypocotyl elongation ([1]; wild type (WT) seedlings, 1 μM GA, 5 days): did not promote elongation; hypocotyl elongation ([1]; Δppd seedlings, 1 μM GA, 5 days): increased hypocotyl elongation; hypocotyl elongation ([1]; Δppd seedlings, up to 5 μM GA): hypersensitive elongation
nYFP-PPD1: PPD1 with N-terminal fusion of Venus aa 1-173 for BiFC	–	–	–	–	BiFC interaction with BZR1 [2]: no interaction was observed
B1	increase in root biomass/growth/length/branching	–	–	–	–
B2	increase in root biomass/growth/length/branching	increase in root biomass/growth/length/branching	increase in root biomass/growth/length/branching	functionally equivalent	–
B3	increase in root biomass/growth/length/branching	increase in root biomass/growth/length/branching	increase in root biomass/growth/length/branching	functionally equivalent	–
B4	–	increase in root biomass/growth/length/branching	increase in root biomass/growth/length/branching	functionally equivalent	–
